One protein from US10414796 can be followed below.

Data set [1] has as its target heterologous livipeptin fraction 2.2HET (HPLC fraction at 2.2 minutes from E. coli transformed with pALVP).
In data set [2] the target is heterologous livipeptin fraction 4.2HET (HPLC fraction at 4.2 minutes from E. coli transformed with pALVP).
Data set [3] deals with T1, heterologous livipeptin fraction 4.4HET (HPLC fraction at 4.4 minutes from E. coli transformed with pALVP).
T1 chain: FR

B1: papain (protein)
chain: IPEYVDWRQKGAVTPVKNQGSCGSCWAFSAVVTIEGIIKIRTGNLNEYSEQELLDCDRRSYGCNGGYPWSALQLVAQYGIHYRNTYPYEGVQRYCRSREKGPYAAKTDGVRQVQPYNEGALLYSIANQPVSVVLEAAGKDFQLYRGGIFVGPCGNKVDHAVAAVGYGPNYILIKNSWGTGWGENGYIRIKRGTGNSYGVCGLYTSSFYPVKN
B1: the “anti-proteolytic activity (enzymatic assay)” value in data set [1] is “The anti-proteolytic activity of fractions 2.2, 4.2 and 4.4HET was confirmed through the enzymatic assay described previously, resulting active against papain”; in data set [2], “The anti-proteolytic activity of fractions 2.2, 4.2 and 4.4HET was confirmed through the enzymatic assay described previously, resulting active against papain”; in data set [3], “The anti-proteolytic activity of fractions 2.2, 4.2 and 4.4HET was confirmed through the enzymatic assay described previously, resulting active against papain”.
